From publication PMC3530536

Target: recombinant RRM2 domain (aa 190–265) of human WT TDP-43 (human) (UniProt Q13148)
Experiment: SEC; Superdex 75 10/300 in PBS, 0.5 mL/min; soluble RRM2 2–3 mg/mL after heat at 70°C for 10 min, nucleotide-free

stoichiometry N: 2
Substance: recombinant RRM2 domain (aa 190–265) of human WT TDP-43 (from UniProt Q13148 190-265) (domain or fragment)
